Measured values reported in patent US20240279345A1, “ALPHA 5 BETA 1 INTEGRIN BINDING AGENTS AND USES THEREOF” (PASITHEA THERAPEUTICS CORP., priority 2021, published 2024).

Columns and labels:
[1] = target: α5β1 integrin on U87MG cells (human, UniProt P08648 42-1049; P05556 21-798); assay: cell-based or functional assay
[2] = tested on: U87MG cell line; assay: Plate-based cell adhesion assay of U87MG cells to FN; details: antibody 3 to 0.01 μg/mL
Protocol: Cell surface α5β1 integrin receptors interact with FN to promote cellular adhesion. To test whether the human IgG4 chimeric anti-α5β1 antibodies inhibit adhesion, a plate-based cell adhesion assay was developed for use with the U87MG cell line (HTB-14™, ATCC, Manassas, VA) which is derived from a Glioblastoma tumor and is known to express α5β1 integrin. U87MG cells were grown to 80% confluence in EMEM media (ATCC, Manassas, VA, cat. no. 30-2003) supplemented with 10% Fetal Bovine Serum (FBS; ATCC, Manassas, VA, cat. no. 30-2021) in a 5% C02, 37° C. incubator. Cells were dissociated from flasks with 0.05% Trypsin, 0.02% EDTA (Lifeline Cell Technology, Frederick, MD, cat. no. CM0017), washed once with Dulbecco's 1×PBS (DPBS) Modified which contains calcium and magnesium (HyClone, Logan, UT, cat. no. SH30028-02) and resuspended in EMEM media without supplementation at a cellular concentration of 2,000,000 cells per mL. Cells were rested in the incubator for 30 minutes before mixing with a six point 1:3 dilution series of the antibodies with final concentrations ranging from 3 to 0.01 μg/mL in a 96-well polypropylene round-bottom plate. 100,000 rested cells were pre-mixed with each dilution of antibody to a final volume of 100 μL and then transferred to a Human FN coated 96-well plate (R&D Systems, Minneapolis, MN, cat. no. CWP001). The cell-antibody mixtures were incubated for 1 hour at 37° C., 5% C02. Non-adhered cells were removed from the wells by inversion of the plate on an absorbent pad, then washed 2× with 200 uL each well with 1×DPBS without Calcium and Magnesium (EMD Millipore Corp, Billerica, MA, cat. no. TMS-012-A). 100 μL 1× DPBS containing Hoechst 33342 dye (Thermo Fisher Scientific, Waltham, MA, cat. no. 62249) at the recommended dilution (1:2000) was added to each well to fluorescently stain nuclei to facilitate cell counting. Cells that remained adhered to the wells were counted using image analysis software provided by the ImageXpress Pico Automated Cell Imaging System (Molecular Devices, San Jose, CA) which is based on counting fluorescently stained nuclei, in this case using a DAPI filter to detect the Hoechst nuclear staining. Non-linear regression analysis was used to fit curves (4-parameter) to the data using GraphPad Prism version 9.0.2 (GraphPad Software, LLC, San Diego, CA).

[3] = target: T1, recombinant mouse α5β1 (rm-α5β1) (Mus musculus, UniProt P09055+P11688); assay: Plate-based ELISA cross-reactivity to rm-α5β1; format: binding; details: hybridoma supernatant diluted 1:10; plate coated with rm-α5β1
T1 construct: purchased R&D Systems 7728-A5
Protocol: (§1) The 249 positive hybridoma supernatants selected as described in Example 1 were screened for reactivity to rh-α5β1 in a plate-based ELISA. Immulon4 HBX ELISA 96-well plates (Thermo Fisher Scientific, Waltham, MA, cat. no. 3855) were coated with rh-α5β1 (R&D Systems, Minneapolis, MN 55413, cat. no. 3230-A5), at 1 μg/mL in PBS supplemented with 0.5 mM MgCl2, MnCl2 and CaCl2 and incubated overnight at 4° C. Plates were washed 3 times with Wash Buffer (1× Tris Buffered Saline containing 0.05% Tween20), blocked with 2% BSA in 1×TBS (made from 10× Thermo Scientific Blocker BSA (10×) in TBS; Thermo Fisher Scientific, Waltham, MA, cat. no. 37520) for 2 hours at room temperature (RT) then incubated with hybridoma supernatants diluted 1:10 with Standard Diluent (2% BSA, 1×TBS, 0.05% Tween20). Following a 1 hour incubation at RT, wells were washed 3 times, incubated with biotinylated goat anti-mouse secondary antibody at 1:8000 dilution (Invitrogen, Carlsbad, CA, cat. no. 62-6540) for 1 hour, washed 3 times, then incubated for 30 minutes with poly-HRP Streptavidin (Thermo Fisher Scientific, Waltham, MA, cat. no. N200), washed 4 times, incubated with TMB (Thermo Fisher Scientific, Waltham, MA, cat. no. N301) for 5-10 minutes, followed by addition of ELISA Stop Solution (Invitrogen, Carlsbad, CA, cat. no. SS04). Absorbance 450 nm was measured.
In addition, hybridomas were tested for cross-reactivity to recombinant mouse α5β1 (rm-α5β1; R&D Systems, Minneapolis, MN 55413; cat. no. 7728-A5) using the same protocol as above except that the plates were coated with rm-α5β1.

[4] = target: T2, rh-α4β1 (Homo sapiens, UniProt P05556+P13612); assay: Plate-based ELISA reactivity to rh-α4β1 (α5 subunit specificity); format: binding; details: hybridoma supernatant diluted 1:10; plate coated with rh-α4β1
T2 construct: purchased R&D Systems 3230-A5 & 5668-A4
T2 sequence (P13612 34-977 limits assumed): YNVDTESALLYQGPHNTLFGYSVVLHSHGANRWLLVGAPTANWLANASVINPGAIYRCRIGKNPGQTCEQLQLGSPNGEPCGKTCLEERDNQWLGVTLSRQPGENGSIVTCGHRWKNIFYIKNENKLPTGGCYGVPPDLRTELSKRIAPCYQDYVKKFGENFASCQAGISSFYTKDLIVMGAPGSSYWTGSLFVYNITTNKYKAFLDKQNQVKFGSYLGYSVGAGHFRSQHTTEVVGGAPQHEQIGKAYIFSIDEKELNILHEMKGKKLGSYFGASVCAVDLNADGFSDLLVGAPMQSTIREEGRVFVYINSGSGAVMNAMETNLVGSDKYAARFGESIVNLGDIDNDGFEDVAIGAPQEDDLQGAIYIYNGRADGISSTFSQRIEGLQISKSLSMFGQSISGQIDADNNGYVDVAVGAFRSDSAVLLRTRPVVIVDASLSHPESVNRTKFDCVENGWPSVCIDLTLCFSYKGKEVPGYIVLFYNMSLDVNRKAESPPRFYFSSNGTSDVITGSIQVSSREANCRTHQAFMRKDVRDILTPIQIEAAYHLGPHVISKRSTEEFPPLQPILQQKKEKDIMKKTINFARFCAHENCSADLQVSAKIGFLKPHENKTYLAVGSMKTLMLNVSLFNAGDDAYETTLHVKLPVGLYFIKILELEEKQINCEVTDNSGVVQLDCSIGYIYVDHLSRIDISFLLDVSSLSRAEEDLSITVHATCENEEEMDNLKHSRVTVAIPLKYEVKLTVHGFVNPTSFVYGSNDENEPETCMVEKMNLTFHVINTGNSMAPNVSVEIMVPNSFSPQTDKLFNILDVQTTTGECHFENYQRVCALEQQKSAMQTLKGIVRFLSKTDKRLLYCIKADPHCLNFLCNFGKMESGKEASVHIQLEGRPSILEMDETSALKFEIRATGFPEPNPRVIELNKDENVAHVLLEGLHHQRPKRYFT
T2 sequence (P05556 21-728 limits assumed): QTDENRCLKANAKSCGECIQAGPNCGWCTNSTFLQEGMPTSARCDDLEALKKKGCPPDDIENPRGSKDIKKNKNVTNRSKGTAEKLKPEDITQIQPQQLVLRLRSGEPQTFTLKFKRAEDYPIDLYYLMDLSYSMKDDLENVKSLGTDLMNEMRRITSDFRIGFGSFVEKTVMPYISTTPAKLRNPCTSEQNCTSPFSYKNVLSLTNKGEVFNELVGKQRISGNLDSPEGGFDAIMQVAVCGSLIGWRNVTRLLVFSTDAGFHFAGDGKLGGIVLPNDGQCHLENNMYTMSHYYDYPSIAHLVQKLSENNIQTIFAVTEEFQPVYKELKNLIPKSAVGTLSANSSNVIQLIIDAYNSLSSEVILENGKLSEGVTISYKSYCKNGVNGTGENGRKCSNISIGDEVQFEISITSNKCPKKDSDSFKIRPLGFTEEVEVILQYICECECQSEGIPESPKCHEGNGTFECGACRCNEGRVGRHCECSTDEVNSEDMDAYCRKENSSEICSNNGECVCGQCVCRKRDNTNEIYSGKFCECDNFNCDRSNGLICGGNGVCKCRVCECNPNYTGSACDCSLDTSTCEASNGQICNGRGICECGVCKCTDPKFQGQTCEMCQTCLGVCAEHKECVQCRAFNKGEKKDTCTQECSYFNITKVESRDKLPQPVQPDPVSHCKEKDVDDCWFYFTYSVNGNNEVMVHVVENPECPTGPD
Protocol: as §1
In parallel the 249 hybridomas were screened for specificity to the human α5 subunit by testing for reactivity to rh-α4β1 (R&D Systems, Minneapolis, MN 55413; cat. no. 3230-A5 & 5668-A4). Any hybridoma that reacted to both rh-α4β1 and rh-α5β1 is likely to be β1 subunit specific and not considered α5 specific. Using the protocol described above, 29 hybridoma supernatants reacted strongly (>1.0 Absorbance 450 nm) with rh-α4β1 and were not considered to be α5 specific.

[5] = target: T3, recombinant human α5β1 integrin (rh-α5β1) (Homo sapiens, UniProt P05556+P08648); assay: Plate-based ELISA reactivity to rh-α5β1; format: binding; details: selected for further characterization among α5 specific hybridomas (28 selected)
T3 construct: purchased R&D Systems 3230-A5
T3 sequence (P08648 42-894 limits assumed): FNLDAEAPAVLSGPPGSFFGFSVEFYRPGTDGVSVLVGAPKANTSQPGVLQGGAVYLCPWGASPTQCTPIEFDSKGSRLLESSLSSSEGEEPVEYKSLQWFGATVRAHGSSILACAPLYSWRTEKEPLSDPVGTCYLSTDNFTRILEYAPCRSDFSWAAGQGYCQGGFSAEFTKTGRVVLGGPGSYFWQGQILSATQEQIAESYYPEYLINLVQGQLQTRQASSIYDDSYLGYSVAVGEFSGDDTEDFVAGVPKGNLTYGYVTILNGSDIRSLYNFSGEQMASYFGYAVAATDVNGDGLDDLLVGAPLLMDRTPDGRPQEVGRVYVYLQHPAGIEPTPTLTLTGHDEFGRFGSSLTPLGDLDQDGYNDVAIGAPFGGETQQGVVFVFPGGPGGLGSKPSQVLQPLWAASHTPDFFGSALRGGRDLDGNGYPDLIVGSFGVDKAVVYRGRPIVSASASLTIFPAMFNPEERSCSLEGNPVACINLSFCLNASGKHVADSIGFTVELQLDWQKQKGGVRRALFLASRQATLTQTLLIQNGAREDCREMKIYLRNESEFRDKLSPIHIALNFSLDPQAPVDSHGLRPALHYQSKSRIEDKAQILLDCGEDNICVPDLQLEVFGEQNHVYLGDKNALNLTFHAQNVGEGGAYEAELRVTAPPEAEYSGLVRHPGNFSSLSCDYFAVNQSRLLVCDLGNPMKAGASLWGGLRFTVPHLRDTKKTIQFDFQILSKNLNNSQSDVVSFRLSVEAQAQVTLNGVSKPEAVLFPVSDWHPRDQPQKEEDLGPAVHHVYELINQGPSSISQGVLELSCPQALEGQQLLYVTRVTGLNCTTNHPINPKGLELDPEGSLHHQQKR
T3 sequence (P08648 895-995 limits assumed): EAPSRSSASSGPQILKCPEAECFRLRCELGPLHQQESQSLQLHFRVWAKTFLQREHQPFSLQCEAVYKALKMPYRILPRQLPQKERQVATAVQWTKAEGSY
T3 sequence (P05556 21-728 limits assumed): as the sequence (P05556 21-728 limits assumed) above
Protocol: as §1

[6] = target: rh-α5β1 (Homo sapiens, UniProt P05556+P08648); assay: Competition binding studies by Biolayer Interferometry (epitope groups); details: for Response (nm) / % Response: secondary mAb pre-mixed with 20 nM rh-α5β1; for % Response: relative to antigen alone
Sequence of rh-α5β1 (P08648 42-894 limits assumed): as the sequence (P08648 42-894 limits assumed) above
Sequence of rh-α5β1 (P08648 895-995 limits assumed): as the sequence (P08648 895-995 limits assumed) above
Sequence of rh-α5β1 (P05556 21-728 limits assumed): as the sequence (P05556 21-728 limits assumed) above
Protocol: Epitope analysis via competition binding studies was performed using Biolayer Interferometry (BLI) on the 6 antibodies selected as described in Example 5. The anti-α5β1 FN blocking antibodies A2-7A05, C-14D12 and A-15B08 were immobilized on sensors and incubated with each of the other antibodies that had been preincubated with rh-α5β1, to determine whether this antibody-antigen association prevents or allows binding to the antibody on the sensor. The magnitude of observed binding (response) was compared to binding of antigen alone under the same conditions. If the overall response was greater than 120% of antigen binding alone, then the antibodies can pair with each other. If response was less than 80% of response of antigen binding alone, then the antibodies block each other. The protocol was as follows: preincubate the panel of antibodies with antigen (1 hr). Equilibrate the sensor (30 seconds (s))-->Load lead Ab on the sensor (700s)--->Quench (480s)--->Read baseline (480s)-->measure preincubated Ab+Ag association with loaded sensor (600s).

Sequence of α5β1 integrin on U87MG cells (P08648 42-1049 limits assumed, chain 1 of 2): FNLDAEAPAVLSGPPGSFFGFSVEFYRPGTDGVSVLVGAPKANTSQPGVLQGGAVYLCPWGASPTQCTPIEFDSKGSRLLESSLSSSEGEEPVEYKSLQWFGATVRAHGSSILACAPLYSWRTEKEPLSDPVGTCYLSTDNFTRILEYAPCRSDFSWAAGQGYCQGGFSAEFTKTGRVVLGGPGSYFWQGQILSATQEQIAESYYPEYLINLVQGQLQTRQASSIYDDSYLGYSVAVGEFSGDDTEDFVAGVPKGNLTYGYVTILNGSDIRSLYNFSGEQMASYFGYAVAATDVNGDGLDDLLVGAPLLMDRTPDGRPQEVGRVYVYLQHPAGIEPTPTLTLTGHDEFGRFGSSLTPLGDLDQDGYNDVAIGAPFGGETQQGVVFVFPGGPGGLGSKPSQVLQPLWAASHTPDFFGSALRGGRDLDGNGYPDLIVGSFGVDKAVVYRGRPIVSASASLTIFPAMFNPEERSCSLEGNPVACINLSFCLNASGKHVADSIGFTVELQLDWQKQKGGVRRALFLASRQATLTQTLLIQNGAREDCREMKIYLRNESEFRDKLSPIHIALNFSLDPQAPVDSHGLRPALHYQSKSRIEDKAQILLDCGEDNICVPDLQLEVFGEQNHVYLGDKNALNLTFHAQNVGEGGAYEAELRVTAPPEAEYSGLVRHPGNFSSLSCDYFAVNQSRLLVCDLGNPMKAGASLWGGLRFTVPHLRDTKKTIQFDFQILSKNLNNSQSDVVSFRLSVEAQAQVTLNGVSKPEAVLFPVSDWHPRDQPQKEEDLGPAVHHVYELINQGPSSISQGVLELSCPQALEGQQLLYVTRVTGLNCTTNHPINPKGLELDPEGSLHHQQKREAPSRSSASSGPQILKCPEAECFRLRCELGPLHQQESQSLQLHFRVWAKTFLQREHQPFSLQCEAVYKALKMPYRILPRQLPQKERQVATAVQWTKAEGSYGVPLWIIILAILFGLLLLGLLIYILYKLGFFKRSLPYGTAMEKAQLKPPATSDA
Sequence of α5β1 integrin on U87MG cells (P05556 21-798 limits assumed, chain 2 of 2): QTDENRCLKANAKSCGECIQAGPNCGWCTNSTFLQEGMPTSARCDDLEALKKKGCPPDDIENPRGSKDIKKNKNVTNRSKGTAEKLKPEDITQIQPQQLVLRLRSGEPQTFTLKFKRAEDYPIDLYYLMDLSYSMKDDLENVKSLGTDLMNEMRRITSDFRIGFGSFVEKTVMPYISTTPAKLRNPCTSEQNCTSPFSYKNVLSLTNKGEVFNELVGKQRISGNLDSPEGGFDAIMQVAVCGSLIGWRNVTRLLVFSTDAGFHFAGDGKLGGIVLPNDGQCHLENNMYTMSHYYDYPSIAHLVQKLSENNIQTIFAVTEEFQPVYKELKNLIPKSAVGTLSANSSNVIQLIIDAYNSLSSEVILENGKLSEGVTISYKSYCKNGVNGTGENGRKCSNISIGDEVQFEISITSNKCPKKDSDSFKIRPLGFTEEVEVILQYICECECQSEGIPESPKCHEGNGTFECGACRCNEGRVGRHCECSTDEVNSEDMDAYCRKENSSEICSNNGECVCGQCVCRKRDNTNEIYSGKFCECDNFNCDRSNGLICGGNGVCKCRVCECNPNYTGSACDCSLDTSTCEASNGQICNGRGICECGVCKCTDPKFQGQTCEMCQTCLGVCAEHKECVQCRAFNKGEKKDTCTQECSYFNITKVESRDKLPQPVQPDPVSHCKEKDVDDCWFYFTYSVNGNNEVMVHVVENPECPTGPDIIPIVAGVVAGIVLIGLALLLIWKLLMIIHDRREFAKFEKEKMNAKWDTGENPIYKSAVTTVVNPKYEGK

% Inhibition [1]	Cell Counts (Curve Bottom) [1]	Cell Counts (Curve Top) [1]	IC50 [2]	Absorbance 450 nm Mouse α5β1 [3]	Absorbance 450 nm Human α4β1 [4]	Selected Human α5 Specific [5]	Molecule	also measured
25%	28800 cells	38200 cells	0.27 µg/mL	–	–	–	A2-7A05 IgG4 Chimera (antibody, V domains shown) VH: QVQLQQPGAELVKPGASVKLSCKASGYTFTIYWINWVKQRPGQGLEWIGKIYPGSISTDYNEKFKSKATLTVDTSSSTAYMQLSSLTSDDSAVYYCAITGTGGLAYWGQGTLVTVSA VL: ENVLTQSPAIMSASLGEKVTMTCRASSSVNYMYWYQQKSDASPKLWIYFTSSLAPGVPGRFSGSGSGNSYSLTISTMEGEDAATYYCQQFTTSPFTFGSGTKLEIK	–
82%	6320 cells	35400 cells	0.15 µg/mL	–	–	–	A-15B08-T62A IgG4 Chimera (antibody, V domains shown) VH: QVQLKESGPGLVAPSQSLSITCTISGFSLTSYGVHWVRQPPGKGLEWLVVIWSDGSTTYNSALKSRLSISKDNSKSQVFFKMNSLQTDDTAMYYCARHYDYDGDWFAYWGQGTLVTVSA VL: QIVLTQSPAIMSASLGERVTMTCTASSRVSSNSLHWYQQKPGSSPKLWIYSTSNLASGVPARFSGSGSGTSYSLTISSMEAEDAATYYCHQYLRSPPTFGGGTKLEIK	–
–	–	–	–	0.049	0.0558	Yes	A2-3B06: anti-α5β1 antibody, VH SEQ ID NO:42, VL SEQ ID NO:43 (antibody, V domains shown, A2-3B06 VH Sequence; A2-3B06 VL Sequence) VH: QVQLKESGPGLVAPSQSLSITCTISGFSLTTYGVHWVRQPPGKGLEWLVVIWSDGSTTYNSALKSRLNITKDNSKSQVFLKMNSLQTDDTAMYYCVRHGGLLRRDAMDYWGQGTSVTVSS VL: QIVLTQSPAIMSASLGERVTMTCTASSSVSSNSFHWYQQKPGSSPKLWLYSTSNLASGVPARFSGSGSGTSYSLTISSMEAEDAATYYCHQYLRSPPTFGGGTKLEIK	binding of rh-α5β1 complexed with antibody to A2-7A05 on the sensor ([6]; antibody preincubated with rh-α5β1, A2-7A05 immobilized on sensor): able to bind; binding of rh-α5β1 complexed with antibody to A-15B08 on the sensor ([6]; antibody preincubated with rh-α5β1, A-15B08 immobilized on sensor): not able to bind; binding of rh-α5β1 complexed with antibody to C-14D12 on the sensor ([6]; antibody preincubated with rh-α5β1, C-14D12 immobilized on sensor): not able to bind; Response (nm) ([6]; immobilized mAb A2-7A05): 0.07 nm; % Response ([6]; immobilized mAb A2-7A05): 198.65%; Response (nm) ([6]; immobilized mAb A-15B08): 0.10 nm; % Response ([6]; immobilized mAb A-15B08): 50.05%; Response (nm) ([6]; immobilized mAb C-14D12): 0.12 nm; % Response ([6]; immobilized mAb C-14D12): 53.28%; epitope group ([6]; two epitope groups among 6 antibodies): second group
–	–	–	0.12 µg/mL	–	–	–	A-15B08 IgG4 Chimera (antibody, V domains shown) VH: QVQLKESGPGLVAPSQSLSITCTISGFSLTSYGVHWVRQPPGKGLEWLVVIWSDGSTTYNSTLKSRLSISKDNSKSQVFFKMNSLQTDDTAMYYCARHYDYDGDWFAYWGQGTLVTVSA VL: QIVLTQSPAIMSASLGERVTMTCTASSRVSSNSLHWYQQKPGSSPKLWIYSTSNLASGVPARFSGSGSGTSYSLTISSMEAEDAATYYCHQYLRSPPTFGGGTKLEIK	–
–	–	–	0.14 µg/mL	–	–	–	C-14D12 IgG4 Chimera (antibody, V domains shown) VH: QVQLKESGPDLVAPSQSLSITCTVSGFSLTDYGVHWVRQPPGKGLEWLVVIWSDGSTTYNSALKSRLSITKDTSKRQVFLKMNSLQTDDTAMYYCARHAPSFIRYGSRYDALDYWGQGTSVTVSS VL: QIVLTQSPAIMSASLGERVTLTCTASSSVTSSFLHWYQQKPGSSPKLWIYSTSNLASGVPARFSGSGSGTSYSLTISSMEAEDAATYYCHQYHRSPPTFGGGTKLEIK	–
–	–	–	–	0.0619	0.0608	Yes	A2-9A11: hybridoma clone positive on K562 cells (antibody, V domains shown) VH: QVQLKESGPGLVAPSQSLSITCTISGFSLTTYGVHWVRQPPGKGLEWLVVIWSDGSTTYNSALKSRLNITKDNSKSQVFLKMNSLQTDDTAMYYCVRHGGLLRRDAMDYWGQGTSVTVSS VL: QIVLTQSPAIMSASLGERVTMTCTASSSVSSNSFHWYQQKPGSSPKLWLYSTSNLASGVPARFSGSGSGTSYSLTISSMEAEDAATYYCHQYLRSPPTFGGGTKLEIK	–
